Reference: patent publication US20130131320A1 (published 2013)

Assays:
[1] = molecular target: T1, soluble EGFR (human epithelial cell growth factor receptor 1, Her1) (human, UniProt P00533 25-645); test: SPR
[2] = molecular target: T1, soluble EGFR (human epithelial cell …); test: SPR; remark: listed apart in the source
[3] = molecular target: T1, soluble EGFR (human epithelial cell …); test: ITC

| koff [1] [s⁻¹] | Ka [2] [M⁻¹] | Ka [3] [M⁻¹] | Binder |
| --- | --- | --- | --- |
| 0.00085 | 3.5e+08 | 4.1e+09 | h528 Fv comprising mutant VL LRL (other) VH: QVQLVQSGAEVKKPGASVKVSCKASGYTFTSYWMHWVRQAPGQGLEWMGNIYPGSGGTNYAEKFKNRVTMTRDTSISTAYMELSRLRSDDTAVYYCARSGGPYFFDYWGQGTLVTVSS VL: not shown |
| 0.006 | 4e+07 | 2.1e+07 | h528Fv WT (other) VH: QVQLVQSGAEVKKPGASVKVSCKASGYTFTSYWMHWVRQAPGQGLEWMGNIYPGSGGTNYAEKFKNRVTMTRDTSISTAYMELSRLRSDDTAVYYCARSGGPYFFDYWGQGTLVTVSS VL: DIVMTQSPLSLPVTPGEPASISCRSSQNIVHNNGITYLEWYLQKPGQSPQLLIYKVSDRFSGVPDRFSGSGSGTDFTLKISRVEAEDVGVYYCFQGSHIPPTFGQGTKVEIKR |
| 0.00078 | 6.8e+08 | 1.05e+09 | h528 Fv comprising mutant VL LRS (other) VH: QVQLVQSGAEVKKPGASVKVSCKASGYTFTSYWMHWVRQAPGQGLEWMGNIYPGSGGTNYAEKFKNRVTMTRDTSISTAYMELSRLRSDDTAVYYCARSGGPYFFDYWGQGTLVTVSS VL: DIVMTQSPLSLPVTPGEPASISCRSSQNIVHNNGITYLEWYLQKPGQSPQLLIYLVSRRSSGVPDRFSGSGSGTDFTLKISRVEAEDVGVYYCFQGSHIPPTFGQGTKVEIKR |
